This is an account of results in the supplement of paper PMC9112550, “Optimization of the antimicrobial peptide Bac7 by deep mutational scanning” (BMC Biology, 2022).

For this data set, the system named is Escherichia coli TOP10. In words: shrunken log2 fold change of peptide-encoding DNA abundance (4.5 h post-induction vs induction); higher = less antimicrobial activity (less host growth inhibition). The following applies: time post-induction: 4.5 h; library: site-saturation at positions 5, 18, 19, 20.
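Note: peptides expressed intracellularly from a pBAD plasmid library in pooled LB shake-flask culture, induced with 0.3% L-arabinose, DNA abundance read by NGS, three biological replicates, DESeq2 with apeglm shrinkage.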

With RRIRERPPRLPRPRPRPNSDPRP, the “shrunken log2 fold change” value is -0.142.
For RRIRERPPRLPRPRPRPIRDPRP, the “shrunken log2 fold change” value came to 0.0201.
With RRIRERPPRLPRPRPRPRFEPRP the figure was 0.168; with RRIRVRPPRLPRPRPRPQHHPRP, -0.182.
With RRIRCRPPRLPRPRPRPDMDPRP the figure was -0.00476.
On to RRIRARPPRLPRPRPRPGYCPRP, for which the “shrunken log2 fold change” value was -0.012.
Turning to RRIRWRPPRLPRPRPRPKRNPRP, the “shrunken log2 fold change” value amounted to 0.432.
For RRIRIRPPRLPRPRPRPGIQPRP, the “shrunken log2 fold change” value is -0.0834.
The figure for RRIRARPPRLPRPRPRPDFSPRP is 0.000254.
With RRIRPRPPRLPRPRPRPYNEPRP the figure was -0.458; with RRIRRRPPRLPRPRPRPYLMPRP, -0.146.
With RRIRTRPPRLPRPRPRPYDQPRP the figure was -0.241.
Turning to RRIRWRPPRLPRPRPRPFDFPRP, the “shrunken log2 fold change” value was -0.159.
With RRIRGRPPRLPRPRPRPTGWPRP the figure was 1.04; with RRIRARPPRLPRPRPRPIFPPRP, 0.32; with RRIRLRPPRLPRPRPRPFKYPRP, -0.482.
The figure for RRIRRRPPRLPRPRPRPSKTPRP is -0.0865; for RRIRERPPRLPRPRPRPYAAPRP it is -0.368.
With RRIRDRPPRLPRPRPRPGIHPRP the figure was -0.89; with RRIRFRPPRLPRPRPRPQDNPRP, -0.186.
In the case of RRIRSRPPRLPRPRPRPMQKPRP, the “shrunken log2 fold change” value is -0.0221.
Turning to RRIRTRPPRLPRPRPRPTRQPRP, the “shrunken log2 fold change” value turned out to be 0.112.
Turning to RRIRVRPPRLPRPRPRPEGNPRP, the “shrunken log2 fold change” value was found to be 0.00902.
With RRIRPRPPRLPRPRPRPCFNPRP the figure was -0.512; with RRIRVRPPRLPRPRPRPVGGPRP, 0.306.
The figure for RRIRPRPPRLPRPRPRPHRYPRP is -0.136; for RRIRQRPPRLPRPRPRPVINPRP it is -0.102.
With RRIRSRPPRLPRPRPRPIPDPRP the figure was -0.0495; with RRIRKRPPRLPRPRPRPFSHPRP, -0.131.
RRIRPRPPRLPRPRPRPDKTPRP: the “shrunken log2 fold change” value is 0.015.
With RRIRPRPPRLPRPRPRPICCPRP the figure was -0.139.
With RRIRIRPPRLPRPRPRPTFWPRP the figure was 0.407; with RRIRARPPRLPRPRPRPWYHPRP, -0.0138.
For the sequence RRIRTRPPRLPRPRPRPILRPRP, the “shrunken log2 fold change” value was -0.0606.
With RRIRFRPPRLPRPRPRPPHEPRP the figure was -0.064; with RRIRWRPPRLPRPRPRPMWRPRP, 0.328; with RRIRLRPPRLPRPRPRPSCCPRP, -0.212.
With RRIRYRPPRLPRPRPRPNRMPRP, the “shrunken log2 fold change” value was -0.22.
As for RRIRARPPRLPRPRPRPHRIPRP, the “shrunken log2 fold change” value is -0.145.
As for RRIRYRPPRLPRPRPRPTCEPRP, the “shrunken log2 fold change” value stood at 0.00952.
With RRIRLRPPRLPRPRPRPKVQPRP, the “shrunken log2 fold change” value is 0.22.
With RRIRYRPPRLPRPRPRPLAFPRP the figure was -0.827.
As to RRIRYRPPRLPRPRPRPGIPPRP, the “shrunken log2 fold change” value was -0.193.
The figure for RRIRPRPPRLPRPRPRPDDHPRP is -0.0314.
On to RRIRCRPPRLPRPRPRPRQRPRP, for which the “shrunken log2 fold change” value is 0.645.
Turning to RRIRARPPRLPRPRPRPRTCPRP, the “shrunken log2 fold change” value was found to be 0.181.
The figure for RRIRSRPPRLPRPRPRPYNDPRP is -0.41; for RRIRSRPPRLPRPRPRPKEMPRP it is 0.187.
Regarding RRIRHRPPRLPRPRPRPFVAPRP, the “shrunken log2 fold change” value stood at 1.81.
With RRIRSRPPRLPRPRPRPMLWPRP the figure was 0.619; with RRIRGRPPRLPRPRPRPFGDPRP, 0.0154.
The figure for RRIRRRPPRLPRPRPRPYNSPRP is -0.573; for RRIRNRPPRLPRPRPRPDMKPRP it is -0.423; for RRIRARPPRLPRPRPRPFVCPRP it is -0.476.
For RRIRARPPRLPRPRPRPDQGPRP, the “shrunken log2 fold change” value was 0.261.
The figure for RRIRNRPPRLPRPRPRPHLFPRP is -0.0208; for RRIRYRPPRLPRPRPRPYIMPRP it is -0.223; for RRIRDRPPRLPRPRPRPMQWPRP it is 0.0918.
With RRIRMRPPRLPRPRPRPECYPRP the figure was -0.192; with RRIRPRPPRLPRPRPRPIESPRP, -0.252; with RRIRHRPPRLPRPRPRPPFGPRP, -0.0898.
As for RRIRRRPPRLPRPRPRPFQEPRP, the “shrunken log2 fold change” value was -0.264.
As to RRIRCRPPRLPRPRPRPSRHPRP, the “shrunken log2 fold change” value is -0.33.
With RRIRWRPPRLPRPRPRPPLMPRP the figure was 0.213; with RRIRIRPPRLPRPRPRPQDIPRP, -0.461; with RRIRKRPPRLPRPRPRPRILPRP, 0.0416.
The figure for RRIRKRPPRLPRPRPRPLIVPRP is -0.223; for RRIRQRPPRLPRPRPRPYSSPRP it is -0.751; for RRIRGRPPRLPRPRPRPWYDPRP it is -0.929.
With RRIRDRPPRLPRPRPRPCCGPRP the figure was 1.13; with RRIRDRPPRLPRPRPRPNVEPRP, 0.119.
Turning to RRIRWRPPRLPRPRPRPQVCPRP, the “shrunken log2 fold change” value worked out at 0.189.
With RRIRVRPPRLPRPRPRPEINPRP the figure was -0.00259; with RRIRHRPPRLPRPRPRPMPKPRP, 0.193.
The figure for RRIRPRPPRLPRPRPRPFYLPRP is -0.685; for RRIRDRPPRLPRPRPRPPPRPRP it is 1.1.
For RRIRNRPPRLPRPRPRPCKDPRP, the “shrunken log2 fold change” value is -0.00844.
The figure for RRIRKRPPRLPRPRPRPGLYPRP is 0.324; for RRIRERPPRLPRPRPRPDRQPRP it is -0.0719.
The figure for RRIRQRPPRLPRPRPRPTYWPRP is -0.247.
With RRIRQRPPRLPRPRPRPRCYPRP the figure was 0.0331.
RRIRSRPPRLPRPRPRPYMTPRP: the “shrunken log2 fold change” value is -0.586.
With RRIRNRPPRLPRPRPRPPPNPRP the figure was 1.04; with RRIRQRPPRLPRPRPRPQISPRP, -0.159; with RRIRGRPPRLPRPRPRPYCTPRP, -0.0267.
With RRIRHRPPRLPRPRPRPVINPRP the figure was -0.242; with RRIRQRPPRLPRPRPRPVFWPRP, 0.113; with RRIRVRPPRLPRPRPRPVGAPRP, 0.329.
With RRIRVRPPRLPRPRPRPDDYPRP the figure was -0.272; with RRIRDRPPRLPRPRPRPPTYPRP, -0.383; with RRIRYRPPRLPRPRPRPLNHPRP, -0.796.
As for RRIRTRPPRLPRPRPRPITVPRP, the “shrunken log2 fold change” value was -0.154.
Regarding RRIRWRPPRLPRPRPRPHQLPRP, the “shrunken log2 fold change” value stood at 0.117.
With RRIRFRPPRLPRPRPRPDVTPRP the figure was -0.302.
On to RRIRMRPPRLPRPRPRPRHWPRP, for which the “shrunken log2 fold change” value turned out to be 0.477.
With RRIRKRPPRLPRPRPRPPATPRP, the “shrunken log2 fold change” value stood at 0.773.
With RRIRPRPPRLPRPRPRPFSVPRP the figure was -0.0603; with RRIRGRPPRLPRPRPRPYNKPRP, -0.593.
The figure for RRIRTRPPRLPRPRPRPPSFPRP is 0.264; for RRIRKRPPRLPRPRPRPWLAPRP it is 0.201; for RRIRHRPPRLPRPRPRPYMWPRP it is -1.86.
Turning to RRIRVRPPRLPRPRPRPVHHPRP, the “shrunken log2 fold change” value was -0.199.
Regarding RRIRYRPPRLPRPRPRPHQHPRP, the “shrunken log2 fold change” value amounted to 0.0599.
The figure for RRIRSRPPRLPRPRPRPQERPRP is -0.0153; for RRIRKRPPRLPRPRPRPHAGPRP it is 0.143; for RRIRSRPPRLPRPRPRPIEIPRP it is -0.00473.
The figure for RRIRVRPPRLPRPRPRPQDNPRP is -1.05; for RRIRMRPPRLPRPRPRPLVFPRP it is 0.102; for RRIRCRPPRLPRPRPRPHMDPRP it is -0.329.
The figure for RRIRNRPPRLPRPRPRPGNAPRP is 0.0258; for RRIRMRPPRLPRPRPRPEVKPRP it is 2.97; for RRIRWRPPRLPRPRPRPKWTPRP it is -0.119.
As for RRIRERPPRLPRPRPRPNWEPRP, the “shrunken log2 fold change” value turned out to be 0.0232.
In the case of RRIRTRPPRLPRPRPRPLMTPRP, the “shrunken log2 fold change” value was 0.0717.
For the sequence RRIRVRPPRLPRPRPRPAAVPRP, the “shrunken log2 fold change” value was found to be 0.114.
The figure for RRIRFRPPRLPRPRPRPVQQPRP is 0.355; for RRIRQRPPRLPRPRPRPKQQPRP it is -0.141; for RRIRIRPPRLPRPRPRPKTPPRP it is -0.0573.
RRIRTRPPRLPRPRPRPCECPRP: the “shrunken log2 fold change” value amounted to 0.0538.
In the case of RRIRCRPPRLPRPRPRPKDEPRP, the “shrunken log2 fold change” value is 0.393.
The figure for RRIRWRPPRLPRPRPRPVEGPRP is -0.0555; for RRIRYRPPRLPRPRPRPILHPRP it is -0.141; for RRIRVRPPRLPRPRPRPLMVPRP it is -0.443.
The figure for RRIRARPPRLPRPRPRPGKSPRP is 0.294; for RRIRVRPPRLPRPRPRPDKRPRP it is 0.0226.
